B1: HHH_rd1_0493 (parent)
chain: RDEDEKEKIKEALKRGNEDKAKEIAKRANVSPEEYERLRKEAE

Variants of: B1
Test: folding stability dG (cDNA display proteolysis); higher = more stable
Settings: PBS, room temperature

Variant | folding stability dG [kcal/mol]
RDEDEKEKIKEALKRGNEDKAKEIAKRANVSPEEYEWLRKEAE [R37W] | 2.16
RDEDEKEKIKEALKRGNEDKAKEIAKRANVSPEEYEVLRKEAE [R37V] | 2.24
RDEDEKEKIKEALKRGNEDKAKEIAKRANVSPEEYEYLRKEAE [R37Y] | 2.05
RDEDEKEKIKEALKRGNEDKAKEIAKRANVSPEEYERARKEAE [L38A] | 0.829
RDEDEKEKIKEALKRGNEDKAKEIAKRANVSPEEYERRRKEAE [L38R] | 0.571
RDEDEKEKIKEALKRGNEDKAKEIAKRANVSPEEYERSRKEAE [L38S] | 0.378
RDEDEKEKIKEALKRGNEDKAKEIAKRANVSPEEYERPRKEAE [L38P] | -0.019
RDEDEKEKIKEALKRGNEDKAKEIAKRANVSPEEYERQRKEAE [L38Q] | 0.492
RDEDEKEKIKEALKRGNEDKAKEIAKRANVSPEEYERYRKEAE [L38Y] | 1.85
RDEDEKEKIKEALKRGNEDKAKEIAKRANVSPEEYERNRKEAE [L38N] | 0.332
RDEDEKEKIKEALKRGNEDKAKEIAKRANVSPEEYERMRKEAE [L38M] | 2.26
RDEDEKEKIKEALKRGNEDKAKEIAKRANVSPEEYERCRKEAE [L38C] | 1.29
RDEDEKEKIKEALKRGNEDKAKEIAKRANVSPEEYERIRKEAE [L38I] | 2.76
RDEDEKEKIKEALKRGNEDKAKEIAKRANVSPEEYERTRKEAE [L38T] | 0.593
RDEDEKEKIKEALKRGNEDKAKEIAKRANVSPEEYERFRKEAE [L38F] | 1.58
RDEDEKEKIKEALKRGNEDKAKEIAKRANVSPEEYERGRKEAE [L38G] | 0.162
RDEDEKEKIKEALKRGNEDKAKEIAKRANVSPEEYERKRKEAE [L38K] | 0.318
RDEDEKEKIKEALKRGNEDKAKEIAKRANVSPEEYERERKEAE [L38E] | 0.322
RDEDEKEKIKEALKRGNEDKAKEIAKRANVSPEEYERDRKEAE [L38D] | 0.129
RDEDEKEKIKEALKRGNEDKAKEIAKRANVSPEEYERWRKEAE [L38W] | 1.78

Variant | folding stability dG [kcal/mol]
RDEDEKEKIKEALKRGNEDKAKEIAKRANVSPEEYERHRKEAE [L38H] | 0.352
RDEDEKEKIKEALKRGNEDKAKEIAKRANVSPEEYERVRKEAE [L38V] | 1.23
RDEDEKEKIKEALKRGNEDKAKEIAKRANVSPEEYERLRKEAT [E43T] | 2.65
RDEDEKEKIKEALKRGNEDKAKEIAKRANVSPEEYERLRKEAV [E43V] | 2.79
RDEDEKEKIKEALKRGNEDKAKEIAKRANVSPEEYERLRKEAI [E43I] | 3.07
RDEDEKEKIKEALKRGNEDKAKEIAKRANVSPEEYERLRKEAA [E43A] | 2.94
RDEDEKEKIKEALKRGNEDKAKEIAKRANVSPEEYERLRKEAR [E43R] | 2.72
RDEDEKEKIKEALKRGNEDKAKEIAKRANVSPEEYERLRKEAP [E43P] | 1.3
RDEDEKEKIKEALKRGNEDKAKEIAKRANVSPEEYERLRKEAS [E43S] | 2.62
RDEDEKEKIKEALKRGNEDKAKEIAKRANVSPEEYERLRKEAM [E43M] | 3.31
RDEDEKEKIKEALKRGNEDKAKEIAKRANVSPEEYERLRKEAC [E43C] | 2.61
RDEDEKEKIKEALKRGNEDKAKEIAKRANVSPEEYERLRKEAD [E43D] | 2.56
RDEDEKEKIKEALKRGNEDKAKEIAKRANVSPEEYERLRKEAW [E43W] | 3.31
RDEDEKEKIKEALKRGNEDKAKEIAKRANVSPEEYERLRKEAN [E43N] | 2.59
RDEDEKEKIKEALKRGNEDKAKEIAKRANVSPEEYERLRKEAG [E43G] | 2.47
RDEDEKEKIKEALKRGNEDKAKEIAKRANVSPEEYERLRKEAY [E43Y] | 3.29
RDEDEKEKIKEALKRGNEDKAKEIAKRANVSPEEYERLRKEAF [E43F] | 3.37
RDEDEKEKIKEALKRGNEDKAKEIAKRANVSPEEYERLRKEAH [E43H] | 2.77
RDEDEKEKIKEALKRGNEDKAKEIAKRANVSPEEYERLRKEAL [E43L] | 3.33
RDEDEKEKIKEALKRGNEDKAKEIAKRANVSPEEYERLRKEAK [E43K] | 2.64

Variant | folding stability dG [kcal/mol]
RDEDEKEKIKEALKRGNEDKAKEIAKRANVSPEEYERLRKEAQ [E43Q] | 3.02
RDEDEKEKIKEALKRGNEDKAKEIAKRANVSPEEYERLRTEAE [K40T] | 2.8
RDEDEKEKIKEALKRGNEDKAKEIAKRANVSPEEYERLREEAE [K40E] | 2.98
RDEDEKEKIKEALKRGNEDKAKEIAKRANVSPEEYERLRVEAE [K40V] | 3.01
RDEDEKEKIKEALKRGNEDKAKEIAKRANVSPEEYERLRNEAE [K40N] | 2.72
RDEDEKEKIKEALKRGNEDKAKEIAKRANVSPEEYERLRREAE [K40R] | 3.33
RDEDEKEKIKEALKRGNEDKAKEIAKRANVSPEEYERLRLEAE [K40L] | 3.21
RDEDEKEKIKEALKRGNEDKAKEIAKRANVSPEEYERLRPEAE [K40P] | 0.577
RDEDEKEKIKEALKRGNEDKAKEIAKRANVSPEEYERLRIEAE [K40I] | 3.16
RDEDEKEKIKEALKRGNEDKAKEIAKRANVSPEEYERLRFEAE [K40F] | 2.8
RDEDEKEKIKEALKRGNEDKAKEIAKRANVSPEEYERLRMEAE [K40M] | 3.2
RDEDEKEKIKEALKRGNEDKAKEIAKRANVSPEEYERLRSEAE [K40S] | 2.9
RDEDEKEKIKEALKRGNEDKAKEIAKRANVSPEEYERLRDEAE [K40D] | 2.63
RDEDEKEKIKEALKRGNEDKAKEIAKRANVSPEEYERLRQEAE [K40Q] | 3.26
RDEDEKEKIKEALKRGNEDKAKEIAKRANVSPEEYERLRAEAE [K40A] | 3.15
RDEDEKEKIKEALKRGNEDKAKEIAKRANVSPEEYERLRGEAE [K40G] | 2.62
RDEDEKEKIKEALKRGNEDKAKEIAKRANVSPEEYERLRYEAE [K40Y] | 2.89
RDEDEKEKIKEALKRGNEDKAKEIAKRANVSPEEYERLRWEAE [K40W] | 3.23
RDEDEKEKIKEALKRGNEDKAKEIAKRANVSPEEYERLRHEAE [K40H] | 3.01
